Laboratory results: paper PMC10108200, “Reaction Pathways for the Enzymatic Degradation of Poly(Ethylene Terephthalate): What Characterizes an Efficient PET‐Hydrolase?” (Chembiochem, 2022)

Experiments:
Assay in all cases: initial rates by RP-HPLC, Michaelis-Menten fit
[1] = substrate: O=C(O)c1ccc(C(=O)OCCOC(=O)c2ccc(C(=O)OCCO)cc2)cc1; type: biochemical, Thermobifida fusca; conditions: 50 °C, 10 min, 0-2 mM substrate, 0.01-0.5 μM enzyme
From the text: (§1) initial rates by RP-HPLC, Michaelis-Menten fit on TfC

[2] = substrate: O=C(O)c1ccc(C(=O)OCCOC(=O)c2ccc(C(=O)OCCOC(=O)c3ccc(C(=O)O)cc3)cc2)cc1; type: biochemical, Thermobifida fusca; conditions: 50 °C, 10 min, 0-2 mM substrate, 0.01-0.5 μM enzyme
From the text: as §1

[3] = substrate: O=C(OCCO)c1ccc(C(=O)OCCO)cc1; type: biochemical, Thermobifida fusca; conditions: 50 °C, 10 min, 0-2 mM substrate, 0.01-0.5 μM enzyme
From the text: as §1

[4] = substrate: O=C(O)c1ccc(C(=O)OCCO)cc1; type: biochemical, Thermobifida fusca; conditions: 50 °C, 2 h, 0-2 mM substrate, 0.01-0.5 μM enzyme
From the text: as §1

[5] = substrate: O=C(O)c1ccc(C(=O)OCCOC(=O)c2ccc(C(=O)OCCO)cc2)cc1; type: biochemical, Mycothermus thermophilus; conditions: 50 °C, 10 min, 0-2 mM substrate, 0.01-0.5 μM enzyme
From the text: (§2) initial rates by RP-HPLC, Michaelis-Menten fit on HiC

[6] = substrate: O=C(O)c1ccc(C(=O)OCCOC(=O)c2ccc(C(=O)OCCOC(=O)c3ccc(C(=O)O)cc3)cc2)cc1; type: biochemical, Mycothermus thermophilus; conditions: 50 °C, 10 min, 0-2 mM substrate, 0.01-0.5 μM enzyme
From the text: as §2

[7] = substrate: O=C(O)c1ccc(C(=O)OCCOC(=O)c2ccc(C(=O)OCCO)cc2)cc1; type: biochemical, unidentified prokaryotic organism; conditions: 50 °C, 10 min, 0-2 mM substrate, 0.01-0.5 μM enzyme
From the text: (§3) initial rates by RP-HPLC, Michaelis-Menten fit on LCC

[8] = substrate: O=C(O)c1ccc(C(=O)OCCOC(=O)c2ccc(C(=O)OCCOC(=O)c3ccc(C(=O)O)cc3)cc2)cc1; type: biochemical, unidentified prokaryotic organism; conditions: 50 °C, 10 min, 0-2 mM substrate, 0.01-0.5 μM enzyme
From the text: as §3

[9] = substrate: O=C(OCCO)c1ccc(C(=O)OCCO)cc1; type: biochemical, unidentified prokaryotic organism; conditions: 50 °C, 10 min, 0-2 mM substrate, 0.01-0.5 μM enzyme
From the text: as §3

[10] = substrate: O=C(O)c1ccc(C(=O)OCCO)cc1; type: biochemical, unidentified prokaryotic organism; conditions: 50 °C, 2 h, 0-2 mM substrate, 0.01-0.5 μM enzyme
From the text: as §3

B1: TfC (Thermobifida fusca YX) (protein)
chain: ANPYERGPNPTDALLEASSGPFSVSEENVSRLSASGFGGGTIYYPRENNTYGAVAISPGYTGTEASIAWLGERIASHGFVVITIDTITTLDQPDSRAEQLNAALNHMINRASSTVRSRIDSSRLAVMGHSMGGGGTLRLASQRPDLKAAIPLTPWHLNKNWSSVTVPTLIIGADLDTIAPVATHAKPFYNSLPSSISKAYLELDGATHFAPNIPNKIIGKYSVAWLKRFVDNDTRYTQFLCPGPRDGLFGEVEEYRSTCPF
Km [1]: 170 ± 16 µM | kcat [1]: 11 ± 0.35 s⁻¹ | Km [2]: 170 ± 38 µM | kcat [2]: 62 ± 7.3 s⁻¹ | Km [3]: 230 ± 67 µM | kcat [3]: 1.1 ± 0.12 s⁻¹ | Km [4]: 3800 ± 91 µM

B2: HiC (Mycothermus thermophilus) (protein)
chain: QLGAIENGLESGSANACPDAILIFARGSTEPGNMGITVGPALANGLESHIRNIWIQGVGGPYDAALATNFLPRGTSQANIDEGKRLFALANQKCPNTPVVAGGYSQGAALIAAAVSELSGAVKEQVKGVALFGYTQNLQNRGGIPNYPRERTKVFCNVGDAVCTGTLIITPAHLSYTIEARGEAARFLRDRIRA
Km [5]: 77 ± 9.1 µM | kcat [5]: 2.9 ± 0.098 s⁻¹ | Km [6]: 89 ± 21 µM | kcat [6]: 24 ± 2.9 s⁻¹

B3: LCC (unidentified prokaryotic organism) (protein)
chain: QSNPYQRGPNPTRSALTADGPFSVATYTVSRLSVSGFGGGVIYYPTGTSLTFGGIAMSPGYTADASSLAWLGRRLASHGFVVLVINTNSRFDYPDSRASQLSAALNYLRTSSPSAVRARLDANRLAVAGHSMGGGGTLRIAEQNPSLKAAVPLTPWHTDKTFNTSVPVLIVGAEADTVAPVSQHAIPFYQNLPSTTPKVYVELDNASHFAPNSNNAAISVYTISWMKLWVDNDTRYRQFLCNVNDPALSDFRTNNRHCQ
notes: heterologously expressed and purified
Km [7]: 120 ± 35 µM | kcat [7]: 21 ± 1.7 s⁻¹ | Km [8]: 790 ± 410 µM | kcat [8]: 300 ± 122 s⁻¹ | Km [9]: 960 ± 160 µM | kcat [9]: 6.2 ± 0.62 s⁻¹ | Km [10]: 1200 ± 130 µM | kcat [10]: 0.048 ± 0.0033 s⁻¹
